Reference: US20160230171

What was measured:
plakoglobin = target: T1, plakoglobin
T1 chain: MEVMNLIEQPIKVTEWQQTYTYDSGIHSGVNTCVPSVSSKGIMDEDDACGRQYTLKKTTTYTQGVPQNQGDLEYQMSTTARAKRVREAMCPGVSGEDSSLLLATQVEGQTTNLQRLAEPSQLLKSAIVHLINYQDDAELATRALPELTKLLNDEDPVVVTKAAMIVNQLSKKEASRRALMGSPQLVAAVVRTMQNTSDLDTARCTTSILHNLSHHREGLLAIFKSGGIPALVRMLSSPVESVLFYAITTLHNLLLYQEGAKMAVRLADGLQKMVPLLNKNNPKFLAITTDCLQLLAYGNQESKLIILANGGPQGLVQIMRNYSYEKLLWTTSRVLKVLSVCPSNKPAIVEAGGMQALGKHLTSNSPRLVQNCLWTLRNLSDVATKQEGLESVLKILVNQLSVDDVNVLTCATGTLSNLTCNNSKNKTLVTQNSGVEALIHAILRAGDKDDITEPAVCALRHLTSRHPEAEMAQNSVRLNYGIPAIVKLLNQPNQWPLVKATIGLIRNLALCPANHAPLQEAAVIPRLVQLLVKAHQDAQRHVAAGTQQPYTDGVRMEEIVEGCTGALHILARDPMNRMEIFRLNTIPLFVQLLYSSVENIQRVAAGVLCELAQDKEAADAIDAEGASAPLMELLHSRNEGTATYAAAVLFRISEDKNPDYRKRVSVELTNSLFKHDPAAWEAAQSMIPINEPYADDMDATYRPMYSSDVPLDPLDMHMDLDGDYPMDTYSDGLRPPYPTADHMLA

6His-plakoglobin = target: T2, 6His-plakoglobin
T2 chain: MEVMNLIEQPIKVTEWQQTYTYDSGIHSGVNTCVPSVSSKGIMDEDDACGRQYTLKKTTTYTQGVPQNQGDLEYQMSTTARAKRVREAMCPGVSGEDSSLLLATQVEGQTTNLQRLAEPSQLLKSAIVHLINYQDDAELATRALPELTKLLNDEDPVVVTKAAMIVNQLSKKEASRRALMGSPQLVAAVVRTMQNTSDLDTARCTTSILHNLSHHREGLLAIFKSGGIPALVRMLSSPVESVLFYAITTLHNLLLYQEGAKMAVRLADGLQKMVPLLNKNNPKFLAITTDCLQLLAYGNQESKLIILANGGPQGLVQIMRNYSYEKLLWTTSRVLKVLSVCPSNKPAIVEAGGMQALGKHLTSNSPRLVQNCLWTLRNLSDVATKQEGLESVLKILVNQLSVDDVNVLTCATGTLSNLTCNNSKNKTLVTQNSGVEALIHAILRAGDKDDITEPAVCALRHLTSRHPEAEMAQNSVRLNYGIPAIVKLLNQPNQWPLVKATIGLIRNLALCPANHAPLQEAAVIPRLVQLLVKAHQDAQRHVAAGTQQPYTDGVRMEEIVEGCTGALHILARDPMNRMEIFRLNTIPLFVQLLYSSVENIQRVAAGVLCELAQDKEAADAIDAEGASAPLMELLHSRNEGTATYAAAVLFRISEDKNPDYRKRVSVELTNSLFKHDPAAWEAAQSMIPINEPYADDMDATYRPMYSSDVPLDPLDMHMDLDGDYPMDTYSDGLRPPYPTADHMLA

B1: GST-Trim32 (protein)
chain: MAAAAAASHLNLDALREVLECPICMESFTEEQLRPKLLHCGHTICRQCLEKLLASSINGVRCPFCSKITRITSLTQLTDNLTVLKIIDTAGLSEAVGLLMCRGCGRRLPRQFCRSCGVVLCEPCREADHQPPGHCTLPVKEAAEERRRDFGEKLTRLRELTGELQRRKAALEGVSRDLQARYKAVLQEYGHEERRIQEELARSRKFFTGSLAEVEKSNSQVVEEQSYLLNIAEVQAVSRCDYFLAKIKQADVALLEETADEEEPELTASLPRELTLQDVELLKVGHVGPLQIGQAVKKPRTVNMEDSWAGEEGAASSASASVTFREMDMSPEEVAPSPRASPAKQRSSEAASGIQQCLFLKKMGAKGSTPGMFNLPVSLYVTSQSEVLVADRGNYRIQVFNRKGFLKEIRRSPSGIDSFVLSFLGADLPNLTPLSVAMNCHGLIGVTDSYDNSLKVYTMDGHCVACHRSQLSKPWGITALPSGQFVVTDVEGGKLWCFTVDRGAGVVKYSCLCSAVRPKFVTCDAEGTVYFTQGLGLNVENRQNEHHLEGGFSIGSVGPDGQLGRQISHFFSENEDFRCIAGMCVDARGDLIVADSSRKEILHFPKGGGYSVLIREGLTCPVGIALTPKGQLLVLDCWDHCVKIYSYHLRRYSTP
polyubiquitination in vitro (E1, UbcH5, ATP, 6His-ubiquitin; nickel column; mass spectrometry) (plakoglobin): plakoglobin was polyubiquitinated by Trim32 (as documented by the presence of 13 unique peptides)

B2: recombinant Trim32 (protein)
chain: MAAAAAASHLNLDALREVLECPICMESFTEEQLRPKLLHCGHTICRQCLEKLLASSINGVRCPFCSKITRITSLTQLTDNLTVLKIIDTAGLSEAVGLLMCRGCGRRLPRQFCRSCGVVLCEPCREADHQPPGHCTLPVKEAAEERRRDFGEKLTRLRELTGELQRRKAALEGVSRDLQARYKAVLQEYGHEERRIQEELARSRKFFTGSLAEVEKSNSQVVEEQSYLLNIAEVQAVSRCDYFLAKIKQADVALLEETADEEEPELTASLPRELTLQDVELLKVGHVGPLQIGQAVKKPRTVNMEDSWAGEEGAASSASASVTFREMDMSPEEVAPSPRASPAKQRSSEAASGIQQCLFLKKMGAKGSTPGMFNLPVSLYVTSQSEVLVADRGNYRIQVFNRKGFLKEIRRSPSGIDSFVLSFLGADLPNLTPLSVAMNCHGLIGVTDSYDNSLKVYTMDGHCVACHRSQLSKPWGITALPSGQFVVTDVEGGKLWCFTVDRGAGVVKYSCLCSAVRPKFVTCDAEGTVYFTQGLGLNVENRQNEHHLEGGFSIGSVGPDGQLGRQISHFFSENEDFRCIAGMCVDARGDLIVADSSRKEILHFPKGGGYSVLIREGLTCPVGIALTPKGQLLVLDCWDHCVKIYSYHLRRYSTP
polyubiquitination in vitro (Trim32, UbcH5, ubiquitin, ATP; Ni column; immunoblot with anti plakoglobin) (6His-plakoglobin): recombinant Trim32 also polyubiquitinated 6His-plakoglobin, which was expressed and purified from normal muscle
